Patent publication US20060020109A1 (Harvard, published 2006)
Each block holds one molecule with its values, some of them ahead of it.

Columns and labels:
[1] = target: soluble recombinant HLA-DR2 molecules (MHC class II HLA-DR2 protein) (human); assay: competition ELISA on soluble HLA-DR2; competitor biotinylated Cop 1 (1.5 µM)
[2] = target: soluble recombinant HLA-DR2 molecules (MHC class II HLA-DR2 protein) (human); assay: competition ELISA on soluble HLA-DR2; competitor biotinylated MBP 85-99 (0.13 µM)
[3] = target: HLA-DR2 (DRB1*1501) on antigen presenting cells (MGAR, L466) (human); assay: cell-based or functional assay
[4] = target: T1, soluble recombinant HLA-DR2 molecules (MHC class II HLA-DR2 protein) (human); assay: competition ELISA on soluble HLA-DR2; competitor biotinylated Cop 1 (1.5 µM)
T1 construct: Soluble, empty protein from Drosophila S2 cells, captured on plates by antibody LB3.1; also called MHC class II DR2 protein; recombinant HLA-DR2 protein

[5] = target: T1, soluble recombinant HLA-DR2 molecules …; assay: competition ELISA on soluble HLA-DR2; competitor biotinylated MBP 85-99 (0.13 µM)
[6] = target: T2, soluble recombinant HLA-DR2 molecules (MHC class II HLA-DR2 protein) (human); assay: competition ELISA on soluble HLA-DR2; competitor biotinylated Cop 1 (1.5 µM); conditions: remark: other sources report otherwise
T2 chain 1: not shown
T2 chain 2: not shown

Molecule: Cop 1 (Copolymer 1; poly(Y,E,A,K); Copaxone), unlabeled
IC50 [1]: 7 µM
IC50 [2]: 100 µM

Molecule: KEEYAAAAAAAAAAA [synthetic peptide #42]
Inhibition of IL-2 production (%), Hy1B [3]: 49%
IC50 [4]: > 1000 µM

Molecule: AAAEYKAYAAAAAAA [synthetic peptide #70]
Inhibition of IL-2 production (%), Hy1B [3]: 24%
IC50 [4]: > 1000 µM

Molecule: AAEEYKAYAAAAAAA [synthetic peptide #61]
Inhibition of IL-2 production (%), Hy1B [3]: 35%
IC50 [4]: > 1000 µM

Molecule: AEAEYKAYAAAAAAA [synthetic peptide #66]
Inhibition of IL-2 production (%), Hy1B [3]: 43%
IC50 [4]: > 1000 µM

Molecule: AKAAYEAYAAAAAAA [synthetic peptide #64]
Inhibition of IL-2 production (%), Hy1B [3]: 18%
IC50 [4]: > 1000 µM

Molecule: AEKAYAAAAAAAAAA [synthetic peptide #43]
Inhibition of IL-2 production (%), Hy1B [3]: 0%
IC50 [6]: > 1000 µM

Molecule: AAEAVAAAAAAAAAA [synthetic peptide #118]
Inhibition of IL-2 production (%), Hy1B [3]: 38%
IC50 [4]: > 1000 µM

Molecule: AAAKYAAAAAAAAAA [synthetic peptide #115]
Inhibition of IL-2 production (%), Hy1B [3]: 25%
IC50 [4]: > 1000 µM

Molecule: EAEAYKAYKAAAAAA [synthetic peptide #96]
Inhibition of IL-2 production (%), Hy1B [3]: 43%
IC50 [4]: > 1000 µM
IC50 [5]: 6 µM

Molecule: AAEKVAAAAAAAAAA [synthetic peptide #114]
Inhibition of IL-2 production (%), Hy1B [3]: 34%
IC50 [4]: > 1000 µM

Molecule: EEKAYAAAAAAAAAA [synthetic peptide #105]
Inhibition of IL-2 production (%), Hy1B [3]: 36%
IC50 [4]: > 1000 µM

Molecule: EAKAYEAYKAAAAAA [synthetic peptide #95]
Inhibition of IL-2 production (%), Hy1B [3]: 47%
IC50 [4]: > 1000 µM
IC50 [5]: 40 µM

Molecule: AAAKVAAAAAAAAAA [synthetic peptide #116]
Inhibition of IL-2 production (%), Hy1B [3]: 30%
IC50 [4]: > 1000 µM

Molecule: AAEAYAAAAAAAAAA [synthetic peptide #117]
Inhibition of IL-2 production (%), Hy1B [3]: 25%
IC50 [4]: > 1000 µM

Molecule: EEAAYAAYKAAAAAA [synthetic peptide #90]
Inhibition of IL-2 production (%), Hy1B [3]: 22%
IC50 [4]: > 1000 µM

Molecule: AAEKAAAAAAAAAAA [synthetic peptide #119]
Inhibition of IL-2 production (%), Hy1B [3]: 26%
IC50 [4]: > 1000 µM

Molecule: EKEAYAAYKAAAAAA [synthetic peptide #92]
Inhibition of IL-2 production (%), Hy1B [3]: 42%
IC50 [4]: > 1000 µM

Molecule: EEAKYAAYKAAAAAA [synthetic peptide #91]
Inhibition of IL-2 production (%), Hy1B [3]: 54%
IC50 [4]: > 1000 µM

Next, values leading:

Inhibition of IL-2 production (%), Hy1B [3]: 13%
IC50 [4]: > 150 µM
IC50 [5]: 150 µM
Molecule: AEEAYKAYAAAAAAA [synthetic peptide #53]

Inhibition of IL-2 production (%), Hy1B [3]: 64%
IC50 [4]: 40 µM
IC50 [5]: < 1 µM
B1: synthetic peptide #107 (peptide)
peptide: ENPVVHYFKNIVTPR
notes: Analog of MBP 85-99 with F to Y at the position of MBP residue 91

Inhibition of IL-2 production (%), Hy1B [3]: 3%
IC50 [4]: > 1000 µM
Molecule: AKAAAAEYAAAAAAA [synthetic peptide #51]

Inhibition of IL-2 production (%), Hy1B [3]: 22%
IC50 [4]: 40 µM
IC50 [5]: 10 µM
Molecule: AKKAAEAYAAAAAAA [synthetic peptide #50]

Inhibition of IL-2 production (%), Hy1B [3]: 32%
IC50 [4]: 15 µM
IC50 [5]: > 1000 µM
Molecule: EEAAYAYKKAAAAAA [synthetic peptide #112]

Inhibition of IL-2 production (%), Hy1B [3]: 49%
IC50 [4]: < 1 µM
IC50 [5]: > 150 µM
Molecule: AKKEYAEYKAAAAAA [synthetic peptide #103]

Inhibition of IL-2 production (%), Hy1B [3]: 39%
IC50 [4]: 100 µM
IC50 [5]: > 1000 µM
Molecule: EEKAYAYAKAAAAAA [synthetic peptide #106]

IC50 [4]: 2 µM
IC50 [5]: > 1000 µM
Molecule: EEAAYKAAKAAAAAA [synthetic peptide #108]

Inhibition of IL-2 production (%), Hy1B [3]: 30%
IC50 [4]: < 1 µM
IC50 [5]: > 1000 µM
Molecule: EAKAYEYAKAAAAAA [synthetic peptide #113]

Inhibition of IL-2 production (%), Hy1B [3]: 57%
IC50 [4]: > 150 µM
IC50 [5]: 5 µM
Molecule: EAAAYKAYKAAAAAA [synthetic peptide #99]

Inhibition of IL-2 production (%), Hy1B [3]: 50%
IC50 [4]: > 150 µM
IC50 [5]: 3 µM
Molecule: AAEAYKAYKAAAAAA [synthetic peptide #94]

Inhibition of IL-2 production (%), Hy1B [3]: 56%
IC50 [4]: 2 µM
IC50 [5]: > 150 µM
Molecule: EAAKYEAYKAAAAAA [synthetic peptide #100]

Inhibition of IL-2 production (%), Hy1B [3]: 53%
IC50 [4]: 20 µM
IC50 [5]: > 150 µM
Molecule: AAEKYAEYKAAAAAA [synthetic peptide #104]

Inhibition of IL-2 production (%), Hy1B [3]: 48%
IC50 [4]: > 150 µM
IC50 [5]: 8 µM
Molecule: AAKAYEAYKAAAAAA [synthetic peptide #93]

Inhibition of IL-2 production (%), Hy1B [3]: 57%
IC50 [4]: 2 µM
IC50 [5]: 20 µM
Molecule: EAKKYEAYKAAAAAA [synthetic peptide #102]

Inhibition of IL-2 production (%), Hy1B [3]: 53%
IC50 [4]: < 1 µM
IC50 [5]: 3 µM
Molecule: EKAKYEAYKAAAAAA [synthetic peptide #101]

Inhibition of IL-2 production (%), Hy1B [3]: 20%
IC50 [4]: > 150 µM
IC50 [5]: 150 µM
Molecule: AEKAYAAYAAAAAAA [synthetic peptide #52]

Inhibition of IL-2 production (%), Hy1B [3]: 0%
IC50 [4]: > 150 µM
IC50 [5]: 95 µM
Molecule: AKEAAAAYAAAAAAA [synthetic peptide #45]

IC50 [4]: < 1 µM
IC50 [5]: > 1000 µM
Molecule: EEAAYKAAKAAAAAA [synthetic peptide #111]
